From patent US20110318339A1 (FABRUS, published 2011)
Where a chain is given by its changes, count along the chain named. In names and notes the source's numbering stands.

B1: Fab VH1-46_IGHD6-6*01_IGHJ1*01 S102A/S103P/S104F/H111F & L6_IGKJ1*01 S28N/S30D/S31H A55S (Fab, V domains shown)
VH: QVQLVQSGAEVKKPGASVKVSCKASGYTFTSYYMHWVRQAPGQGLEWMGIINPSGGSTSYAQKFQGRVTMTRDTSTSTVYMELSSLRSEDTAVYYCAREEYAPFSAEYFQFWGQGTLVTVSS
VL: EIVLTQSPATLSLSPGERATLSCRASQNVDHYLAWYQQKPGQAPRLLIYDASNRSTGIPARFSGSGSGTDFTLTISSLEPEDFAVYYCQQRSNWPPWTFGQGTKVEIKR
notes: Fab made in E. coli: VH on CH1 with His6 and Flag tags (Plasmid A), VL on kappa CL (Plasmid C); also called H: APFF & L: NDH A55S
B2: Fab VH1-46_IGHD6-6*01_IGHJ1*01 S102A/S103P/S104F/H111F & L6_IGKJ1*01 S28N/S30D/S31H N53H (Fab, V domains shown)
VH: B1 VH
VL: B1 VL with N53H, S55A
notes: Fab made in E. coli: VH on CH1 with His6 and Flag tags (Plasmid A), VL on kappa CL (Plasmid C); also called H: APFF & L: NDH N53H
B3: Fab VH1-46_IGHD6-6*01_IGHJ1*01 S102A/S103P/S104F/H111F & L6_IGKJ1*01 S28N/S30D/S31H S52L (Fab, V domains shown)
VH: B1 VH
VL: B1 VL with S52L, S55A
notes: Fab made in E. coli: VH on CH1 with His6 and Flag tags (Plasmid A), VL on kappa CL (Plasmid C); also called H: APFF & L: NDH S52L
B4: Fab VH1-46_IGHD6-6*01_IGHJ1*01 S102A/S103P/S104F/H111F & L6_IGKJ1*01 S28N/S30D/S31H A55G (Fab, V domains shown)
VH: B1 VH
VL: B1 VL with S55G
notes: Fab made in E. coli: VH on CH1 with His6 and Flag tags (Plasmid A), VL on kappa CL (Plasmid C); also called H: APFF & L: NDH A55G
B5: Fab VH1-46_IGHD6-6*01_IGHJ1*01 S102A/S103P/S104F/H111F & L6_IGKJ1*01 S28N/S30D/S31H S52T (Fab, V domains shown)
VH: B1 VH
VL: B1 VL with S52T, S55A
notes: Fab made in E. coli: VH on CH1 with His6 and Flag tags (Plasmid A), VL on kappa CL (Plasmid C); also called H: APFF & L: NDH S52T
B6: Fab VH1-46_IGHD6-6*01_IGHJ1*01 S102A/S103P/S104F/H111F I51V/N52L/S54T/G56H & L6_IGKJ1*01 (Fab, V domains shown)
VH: B1 VH with I51V, N52L, S54T, G56H
VL: not shown
notes: Fab made in E. coli: VH on CH1 with His6 and Flag tags (Plasmid A), VL on kappa CL (Plasmid C); also called H: APFF VLTH & L: wt
B7: Fab VH1-46_IGHD6-6*01_IGHJ1*01 S102A/S103P/S104F/H111F I51N/N52L/S54T/G56H & L6_IGKJ1*01 (Fab, V domains shown)
VH: B1 VH with I51N, N52L, S54T, G56H
VL: not shown
notes: Fab made in E. coli: VH on CH1 with His6 and Flag tags (Plasmid A), VL on kappa CL (Plasmid C); also called H: APFF NLTH & L: wt
B8: Fab VH1-46_IGHD6-6*01_IGHJ1*01 S102A/S103P/S104F/H111F I51T/N52L/P53A/S54T/G56H & L6_IGKJ1*01 (Fab, V domains shown)
VH: B1 VH with I51T, N52L, P53A, S54T, G56H
VL: not shown
notes: Fab made in E. coli: VH on CH1 with His6 and Flag tags (Plasmid A), VL on kappa CL (Plasmid C); also called H: APFF TLATH & L: wt
B9: Fab VH1-46_IGHD6-6*01_IGHJ1*01 S102A/S103P/S104F/H111F N52L/S54T/G56H & L6_IGKJ1*01 (Fab, V domains shown)
VH: B1 VH with N52L, S54T, G56H
VL: not shown
notes: Fab made in E. coli: VH on CH1 with His6 and Flag tags (Plasmid A), VL on kappa CL (Plasmid C); also called H: APFF LTH & L: wt
B10: Fab VH1-46_IGHD6-6*01_IGHJ1*01 S102A/S103P/S104F/H111F I51E/N52L/S54T/G56H & L6_IGKJ1*01 (Fab, V domains shown)
VH: B1 VH with I51E, N52L, S54T, G56H
VL: not shown
notes: Fab made in E. coli: VH on CH1 with His6 and Flag tags (Plasmid A), VL on kappa CL (Plasmid C); also called H: APFF ELTH & L: wt

These binders were tested against T1, recombinant human DLL4 (Cat# 1506-D4/CF, R&D Systems) (human, UniProt Q9NR61 27-529) (assay: ELISA, DLL4 coated, Fab 3.125 nM).
T1 construct: Bought protein; also called hDLL4; rHuman DLL4
Protocol: (§1) The plate was blocked by adding 1% BSA in Tris-buffered Saline Tween (TBST) and incubating for 1 hour at room temperature followed by washing 2 times with 150 μl TBST. A Fab antibody was serially diluted in 1% BSA in PBS. A 50 μl aliquot of each serial dilution was added, in triplicate, to each well and the plate was incubated for 1 hour at room temperature followed by washing 2 times with TBST. 50 μl of either goat anti-human kappa HRP conjugated secondary antibody (Cat # A7164-1 mL, Sigma-Aldrich) or goat anti-human lambda HRP conjugated secondary antibody (Cat # L1645-1 ml, Sigma-Aldrich), diluted 1:1000 in 1% BSA in PBS, was added to each well and the plate was incubated for 30 minutes at room temperature followed by washing 3 times with 200 μl TBST. Finally, 50 μl TMB one-component reagent (Cat # TMBW-1000-01, BioFax) was added and allowed to develop for 2 minutes at room temperature. The reaction was immediately halted by the addition of 50 μl 0.5M H₂SO₄ and the absorbance at 450 nm was measured using an ELISA plate reader.

ELISA absorbance at 450 nm [A450] | Binder
0.108 | B1
0.089 | B2
0.095 | B3
0.093 | B4
0.099 | B5

What follows are binders tested against T1, recombinant human DLL4 (Cat# …) (assay: ELISA, DLL4 coated, Fab 50 nM).
Protocol: as §1

ELISA absorbance at 450 nm [A450] | Binder
0.588 | B1
0.416 | B2
0.546 | B3
0.51 | B4
0.49 | B5

What follows are binders tested against T1, recombinant human DLL4 (Cat# …) (assay: ELISA, DLL4 coated, Fab 12.5 nM).
Protocol: as §1

ELISA absorbance at 450 nm [A450] | Binder
0.258 | B1
0.167 | B2
0.215 | B3
0.198 | B4
0.215 | B5

Each binder was assayed against T1, recombinant human DLL4 (Cat# …) (assay: ELISA, DLL4 coated, Fab 0.63 nM).
Protocol: as §1

ELISA absorbance at 450 nm [A450] | Binder
0.785 | B6
0.419 | B7
0.227 | B8
1.37 | B9
1.01 | B10

These binders were tested against T1, recombinant human DLL4 (Cat# …) (assay: ELISA, DLL4 coated, Fab 100 nM).
Protocol: as §1

ELISA absorbance at 450 nm [A450] | Binder
0.858 | B1
0.608 | B2
0.791 | B3
0.814 | B4
0.653 | B5

The binders below were run against T1, recombinant human DLL4 (Cat# …) (assay: ELISA, DLL4 coated, Fab 20 nM).
Protocol: as §1

ELISA absorbance at 450 nm [A450] | Binder
2.05 | B6
1.63 | B7
1.11 | B8
2.4 | B9
2.29 | B10

These binders were tested against T1, recombinant human DLL4 (Cat# …) (assay: ELISA, DLL4 coated, Fab 2.5 nM).
Protocol: as §1

ELISA absorbance at 450 nm [A450] | Binder
1.66 | B6
1.17 | B7
0.592 | B8
2.15 | B9
1.98 | B10

These binders were tested against T1, recombinant human DLL4 (Cat# …) (assay: ELISA, DLL4 coated, Fab 1.3 nM).
Protocol: as §1

ELISA absorbance at 450 nm [A450] | Binder
0.252 | B6
0.143 | B7
0.078 | B8
0.653 | B9
0.402 | B10

Each binder was assayed against T1, recombinant human DLL4 (Cat# …) (assay: ELISA, DLL4 coated, Fab 5 nM).
Protocol: as §1

ELISA absorbance at 450 nm [A450] | Binder
2.2 | B6
1.75 | B7
1.27 | B8
2.48 | B9
2.33 | B10

Each binder was assayed against T1, recombinant human DLL4 (Cat# …) (assay: ELISA, DLL4 coated, Fab 6.25 nM).
Protocol: as §1

ELISA absorbance at 450 nm [A450] | Binder
0.154 | B1
0.109 | B2
0.142 | B3
0.125 | B4
0.13 | B5

What follows are binders tested against T1, recombinant human DLL4 (Cat# …) (assay: ELISA, DLL4 coated, Fab 10 nM).
Protocol: as §1

ELISA absorbance at 450 nm [A450] | Binder
1.85 | B6
1.36 | B7
0.875 | B8
2.35 | B9
2.17 | B10

These binders were tested against T1, recombinant human DLL4 (Cat# …) (assay: ELISA, DLL4 coated, Fab 0.31 nM).
Protocol: as §1

ELISA absorbance at 450 nm [A450] | Binder
2.05 | B6
1.63 | B7
1.11 | B8
2.4 | B9
2.29 | B10

Each binder was assayed against T1, recombinant human DLL4 (Cat# …) (assay: ELISA, DLL4 coated, Fab 25 nM).
Protocol: as §1

ELISA absorbance at 450 nm [A450] | Binder
0.407 | B1
0.238 | B2
0.335 | B3
0.316 | B4
0.323 | B5

What follows are binders tested against T1, recombinant human DLL4 (Cat# …) (assay: ELISA, DLL4 coated, Fab 0.16 nM).
Protocol: as §1

ELISA absorbance at 450 nm [A450] | Binder
1.85 | B6
1.36 | B7
0.875 | B8
2.35 | B9
2.17 | B10
